Data: patent US20140274782A1, “AFFINITY REAGENTS AND METHODS FOR DETECTION, PURIFICATION, AND PROTEOMIC ANALYSIS OF METHYLATED PROTEINS” (The Board of Trustees of the Leland Stanford Junior …, priority 2013, published 2014)

T1: G9a and GLP (Homo sapiens, UniProt Q96KQ7+Q9H9B1)
T1 sequence (Q96KQ7 2-1210 limits assumed): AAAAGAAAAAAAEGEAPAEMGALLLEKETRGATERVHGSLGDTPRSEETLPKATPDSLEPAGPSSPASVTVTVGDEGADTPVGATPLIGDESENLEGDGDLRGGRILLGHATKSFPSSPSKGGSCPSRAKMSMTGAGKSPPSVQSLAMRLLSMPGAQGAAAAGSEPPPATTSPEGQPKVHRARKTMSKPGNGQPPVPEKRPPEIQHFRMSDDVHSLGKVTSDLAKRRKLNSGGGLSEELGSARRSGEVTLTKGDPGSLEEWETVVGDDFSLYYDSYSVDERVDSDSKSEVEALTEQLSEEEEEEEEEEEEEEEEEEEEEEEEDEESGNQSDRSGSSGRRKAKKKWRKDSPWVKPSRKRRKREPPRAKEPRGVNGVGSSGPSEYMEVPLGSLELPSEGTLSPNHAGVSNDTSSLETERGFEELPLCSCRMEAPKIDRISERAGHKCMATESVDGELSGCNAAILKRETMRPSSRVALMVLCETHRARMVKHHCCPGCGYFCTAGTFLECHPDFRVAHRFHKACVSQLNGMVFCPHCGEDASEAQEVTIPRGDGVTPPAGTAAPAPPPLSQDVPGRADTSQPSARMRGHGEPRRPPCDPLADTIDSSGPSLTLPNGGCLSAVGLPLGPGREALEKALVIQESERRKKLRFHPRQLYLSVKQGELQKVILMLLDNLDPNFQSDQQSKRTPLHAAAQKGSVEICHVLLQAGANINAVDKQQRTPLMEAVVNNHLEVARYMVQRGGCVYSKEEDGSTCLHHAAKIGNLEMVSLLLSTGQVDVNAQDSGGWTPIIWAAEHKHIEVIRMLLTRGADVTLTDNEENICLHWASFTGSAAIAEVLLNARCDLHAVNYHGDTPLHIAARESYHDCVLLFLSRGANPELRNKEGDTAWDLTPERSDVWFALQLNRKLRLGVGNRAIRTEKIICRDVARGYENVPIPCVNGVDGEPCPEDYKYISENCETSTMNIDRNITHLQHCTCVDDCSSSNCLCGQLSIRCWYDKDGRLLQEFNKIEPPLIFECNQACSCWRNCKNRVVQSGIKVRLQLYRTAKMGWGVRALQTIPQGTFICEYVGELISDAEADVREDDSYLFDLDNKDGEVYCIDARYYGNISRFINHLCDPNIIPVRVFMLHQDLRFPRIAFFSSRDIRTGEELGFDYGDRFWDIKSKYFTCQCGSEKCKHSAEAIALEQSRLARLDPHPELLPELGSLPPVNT
T1 sequence (Q9H9B1 2-1298 limits assumed): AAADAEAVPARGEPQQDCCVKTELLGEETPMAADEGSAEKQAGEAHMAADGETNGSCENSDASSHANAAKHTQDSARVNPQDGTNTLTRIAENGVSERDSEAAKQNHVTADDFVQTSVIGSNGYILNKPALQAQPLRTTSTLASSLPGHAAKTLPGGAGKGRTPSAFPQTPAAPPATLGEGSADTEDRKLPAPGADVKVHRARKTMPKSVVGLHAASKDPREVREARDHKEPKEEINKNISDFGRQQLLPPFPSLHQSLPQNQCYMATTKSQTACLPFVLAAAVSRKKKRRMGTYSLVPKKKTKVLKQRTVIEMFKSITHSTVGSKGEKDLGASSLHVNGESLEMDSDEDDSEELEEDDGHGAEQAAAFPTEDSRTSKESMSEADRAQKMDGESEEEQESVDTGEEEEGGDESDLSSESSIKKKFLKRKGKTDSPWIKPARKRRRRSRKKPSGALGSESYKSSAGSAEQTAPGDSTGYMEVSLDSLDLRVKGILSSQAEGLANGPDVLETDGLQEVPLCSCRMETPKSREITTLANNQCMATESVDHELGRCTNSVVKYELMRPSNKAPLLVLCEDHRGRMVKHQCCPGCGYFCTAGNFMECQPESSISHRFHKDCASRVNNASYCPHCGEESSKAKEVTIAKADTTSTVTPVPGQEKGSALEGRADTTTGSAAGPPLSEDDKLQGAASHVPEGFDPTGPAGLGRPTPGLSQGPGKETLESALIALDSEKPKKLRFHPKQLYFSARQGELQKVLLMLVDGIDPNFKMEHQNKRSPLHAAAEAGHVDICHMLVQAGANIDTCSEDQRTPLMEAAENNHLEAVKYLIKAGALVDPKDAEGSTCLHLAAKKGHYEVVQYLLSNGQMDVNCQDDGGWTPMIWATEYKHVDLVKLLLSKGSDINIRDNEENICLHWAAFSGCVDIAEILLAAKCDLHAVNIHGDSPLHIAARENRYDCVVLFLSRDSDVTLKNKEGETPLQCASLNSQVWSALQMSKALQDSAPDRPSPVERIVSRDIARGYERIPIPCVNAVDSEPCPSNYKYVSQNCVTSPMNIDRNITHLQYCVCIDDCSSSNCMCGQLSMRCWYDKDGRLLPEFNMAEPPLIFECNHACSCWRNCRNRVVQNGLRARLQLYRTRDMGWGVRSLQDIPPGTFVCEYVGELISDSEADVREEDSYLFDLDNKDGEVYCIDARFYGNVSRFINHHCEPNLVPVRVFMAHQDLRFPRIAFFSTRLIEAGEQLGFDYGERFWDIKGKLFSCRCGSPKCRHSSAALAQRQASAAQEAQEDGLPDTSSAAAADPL


Key:
G9a and GLP = molecular target: T1, G9a and GLP; experiment: Triple SILAC pull-down after UNC0638 treatment of 293T cells, DMSO/UNC0638 ratio of protein captured by 3×MBT; assay type: cell-based; set-up: endogenous in cells; host or cells: HEK 293T; settings: for Relative to UNC0638 UNC Heavy / Relative to UNC0638 UNC Light: SILAC ratio DMSO/UNC0638 of protein pulled down with 3xMBT; for Relative to UNC0638 UNC Heavy: UNC0638 in heavy SILAC media; for Relative to UNC0638 UNC Light: UNC0638 in light SILAC media; for Relative to UNC0638 Average: average of UNC Light and UNC Heavy experiments;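 on all read-outs here: mass spectrometry (Q-Exactive) SILAC quantitation, DMSO/UNC0638 ratio computed after subtracting 3×MBTD355N mutant pull-down background, only proteins with at least twofold 3×MBT over mutant signal considered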
3×MBT domain of L3MBTL1 = experiment: Triple SILAC pull-down, 3xMBT/3xMBTD355N ratio (cytoplasmic, nuclear and chromatin fractions of 293T cells); assay type: binding, human; settings: SILAC ratio, pull-down 3xMBT vs 3xMBTD355N; for 3xMBT/D355N UNC Heavy: experiment with UNC0638 in heavy SILAC media; for 3xMBT/D355N UNC Light: experiment with UNC0638 in light SILAC media;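 on all read-outs here: proteins quantified with MaxQuant, requiring at least two unique peptides and quantification in both label directions, normalized to the mean of proteins from a digested loading control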

Molecule | Relative to UNC0638 UNC Heavy (G9a and GLP) [log base 2] | Relative to UNC0638 UNC Light (G9a and GLP) [log base 2] | Relative to UNC0638 Average (G9a and GLP) [log base 2] | Candidate G9a/GLP target (G9a and GLP; reduced association with 3xMBT after UNC0638 treatment) | 3xMBT/D355N UNC Heavy (3×MBT domain of L3MBTL1) [log base 2] | 3xMBT/D355N UNC Light (3×MBT domain of L3MBTL1) [log base 2]
EIF4E2 (protein, UniProt O60573 1-245, looked up) Eukaryotic translation …: MNNKFDALKDDDSGDHDQNEENSTQKDGEKEKTERDKNQSSSKRKAVVPGPAEHPLQYNYTFWYSRRTPGRPTSSQSYEQNIKQIGTFASVEQFWRFYSHMVRPGDLTGHSDFHLFKEGIKPMWEDDANKNGGKWIIRLRKGLASRCWENLILAMLGEQFMVGEEICGAVVSVRFQEDIISIWNKTASDQATTARIRDTLRRVLNLPPNTIMEYKTHTDSIKMPGRLGPQRLLFQNLWKPRLNVP | 0.24 | 0.06 | 0.15 |  | 1.89 | 2.26
C22orf28 (protein, UniProt Q9Y3I0 1-505, looked up) RNA-splicing ligase RtcB …: MSRSYNDELQFLEKINKNCWRIKKGFVPNMQVEGVFYVNDALEKLMFEELRNACRGGGVGGFLPAMKQIGNVAALPGIVHRSIGLPDVHSGYGFAIGNMAAFDMNDPEAVVSPGGVGFDINCGVRLLRTNLDESDVQPVKEQLAQAMFDHIPVGVGSKGVIPMNAKDLEEALEMGVDWSLREGYAWAEDKEHCEEYGRMLQADPNKVSARAKKRGLPQLGTLGAGNHYAEIQVVDEIFNEYAAKKMGIDHKGQVCVMIHSGSRGLGHQVATDALVAMEKAMKRDKIIVNDRQLACARIASPEGQDYLKGMAAAGNYAWVNRSSMTFLTRQAFAKVFNTTPDDLDLHVIYDVSHNIAKVEQHVVDGKERTLLVHRKGSTRAFPPHHPLIAVDYQLTGQPVLIGGTMGTCSYVLTGTEQGMTETFGTTCHGAGRALSRAKSRRNLDFQDVLDKLADMGIAIRVASPKLVMEEAPESYKNVTDVVNTCHDAGISKKAIKLRPIAVIKG | 0.08 | 0.22 | 0.15 |  | 2.49 | 2.67
ZC3HAV1L (protein, UniProt Q96H79 2-300, looked up) Zinc finger CCCH-type …: AEPTVCSFLTKVLCAHGGRMFLKDLRGHVELSEARLRDVLQRAGPERFLLQEVETQEGLGDAEAEAAAGAVGGGGTSAWRVVAVSSVRLCARYQRGECQACDQLHFCRRHMLGKCPNRDCWSTCTLSHDIHTPVNMQVLKSHGLFGLNENQLRILLLQNDPCLLPEVCLLYNKGEALYGYCNLKDKCNKFHVCKSFVKGECKLQTCKRSHQLIHAASLKLLQDQGLNIPSVVNFQIISTYKHMKLHKMLENTDNSSPSTEHSQGLEKQGVHAAGAAEAGPLASVPAQSAKKPCPVSCEK | 0.14 | 0.16 | 0.15 |  | 1.71 | 2.00
EEF1D (protein, UniProt P29692 2-281, looked up) Elongation factor 1-delta: ATNFLAHEKIWFDKFKYDDAERRFYEQMNGPVAGASRQENGASVILRDIARARENIQKSLAGSSGPGASSGTSGDHGELVVRIASLEVENQSLRGVVQELQQAISKLEARLNVLEKSSPGHRATAPQTQHVSPMRQVEPPAKKPATPAEDDEDDDIDLFGSDNEEEDKEAAQLREERLRQYAEKKAKKPALVAKSSILLDVKPWDDETDMAQLEACVRSIQLDGLVWGASKLVPVGYGIRKLQIQCVVEDDKVGTDLLEEEITKFEEHVQSVDIAAFNKI | 0.11 | 0.20 | 0.15 |  | 3.34 | 3.56

Further lines, with some results ahead:

Relative to UNC0638 UNC Heavy (G9a and GLP) [log base 2] | Relative to UNC0638 UNC Light (G9a and GLP) [log base 2] | Relative to UNC0638 Average (G9a and GLP) [log base 2] | Candidate G9a/GLP target (G9a and GLP; reduced association with 3xMBT after UNC0638 treatment) | Molecule | 3xMBT/D355N UNC Heavy (3×MBT domain of L3MBTL1) [log base 2] | 3xMBT/D355N UNC Light (3×MBT domain of L3MBTL1) [log base 2]
0.17 | 1.22 | 0.70 | ✓ | HN1L (protein, UniProt Q9H910 1-190, looked up) Jupiter microtubule …: MFQVPDSEGGRAGSRAMKPPGGESSNLFGSPEEATPSSRPNRMASNIFGPTEEPQNIPKRTNPPGGKGSGIFDESTPVQTRQHLNPPGGKTSDIFGSPVTATSRLAHPNKPKDHVFLCEGEEPKSDLKAARSIPAGAEPGEKGSARKAGPAKEQEPMPTVDSHEPRLGPRPRSHNKVLNPPGGKSSISFY | 2.73 | 3.57
0.08 | 0.22 | 0.15 |  | SNRPA1 (protein, UniProt P09661 2-255, looked up) U2 small nuclear …: VKLTAELIEQAAQYTNAVRDRELDLRGYKIPVIENLGATLDQFDAIDFSDNEIRKLDGFPLLRRLKTLLVNNNRICRIGEGLDQALPCLTELILTNNSLVELGDLDPLASLKSLTYLSILRNPVTNKKHYRLYVIYKVPQVRVLDFQKVKLKERQEAEKMFKGKRGAQLAKDIARRSKTFNPGAGLPTDKKKGGPSPGDVEAIKNAIANASTLAEVERLKGLLQSGQIPGRERRSGPTDDGEEEMEEDTVTNGS | 2.94 | 3.39
